46 sequences from the Immune Epitope Database (IEDB) can be followed below.

In the first experiment the target is HLA-A*33:01. As to the kind of experiment: IEDB peptide-MHC binding, purified MHC/competitive/radioactivity; filed as Kd, often an IC50 or EC50 that approximates it; ≥ and ≤ were set here for values at or beyond the usual limits of such assays. The settings on record: source organism: Vaccinia virus WR.
As usually defined, the Kd is the concentration at which binding is half-saturated. As to LFKNVRLLK, the Kd amounted to 1.01 µM.

As for LIPVSEVLLK, the Kd was ≥ 70 µM.

As to LIVTFRERY, the dissociation constant Kd is 4.13 µM.

For LLKYAGLTIK, the dissociation constant Kd worked out at 14.5 µM.

Turning to LMTLDDLAIK, the Kd was ≥ 20.9 µM.

In the case of MLPESDLDK, the Kd is ≥ 73.2 µM.

For NAVYQCRKLR, the Kd was found to be 6.35 µM.

Turning to NFSIIELPY, the Kd was ≥ 35 µM.

In the case of NIERQDYRR, the Kd was determined as 0.924 µM.

For the sequence NIRLTDTEYR, the dissociation constant Kd worked out at 0.157 µM.

Regarding NQNLIPSTVK, the equilibrium dissociation constant (Kd) is ≥ 70 µM.

NSSIISLFY: the dissociation constant Kd turned out to be 7.08 µM.

For the sequence NTILLSDKGK, the Kd was 12.4 µM.

With NTVVRDFENY, the dissociation constant Kd is ≥ 21.7 µM.

PLHKYCVNLY: the Kd worked out at 14.4 µM.

PMPYMISTY: the dissociation constant (Kd) is ≥ 77.7 µM.

Regarding PSLEYGANY, the Kd worked out at 7.94 µM.

On to PVDTEFINK, for which the Kd is ≥ 41.8 µM.

QALNSVANR: the Kd came to 0.104 µM.

As for QSYRQYRNY, the equilibrium dissociation constant (Kd) came out at 0.109 µM.

Take RQQLEDIFMR: the Kd is ≥ 58.8 µM.

For SIKIKQDVR, the dissociation constant Kd was 4.45 µM.

Regarding SILDRIDTR, the Kd is 0.113 µM.

The next experiment has as its target HLA-A*03:01. Described as above. The settings on record: source organism: Lymphocytic choriomeningitis virus (strain WE).
For the sequence SAYLISIFLH, the equilibrium dissociation constant (Kd) worked out at 668 nM.

Staying with this experiment, now noted: source organism: Mammarenavirus brazilense.
For the sequence SCMVNHSTYY, the dissociation constant (Kd) came to 100 nM.

Staying with this experiment, now noted: source organism: Mammarenavirus whitewaterense.
As for KCFANNQDER, the Kd was ≥ 70000 nM.

Take KWMLISSELK: the Kd was 19.9 nM.

Still in this experiment, the particulars now being: source organism: SARS coronavirus Tor2.
Turning to LQFTSLEIPR, the equilibrium dissociation constant (Kd) amounted to 804 nM.

On to LSAGVEFLK, for which the Kd is 9.41 nM.

With MSAPPAEYK, the dissociation constant Kd was 4.14 nM.

For PVVAAIITR, the Kd is 11200 nM.

Consider QSQMLLIVLK, for which the Kd is 1620 nM.

Consider RQLFKPLTKK, for which the Kd turned out to be 1.05 nM.

The experiment is the same for the next values; noted with them: source organism: Vaccinia virus WR.
Consider HSNLTETFR, for which the Kd worked out at 112 nM.

As for IIKHIYEQY, the dissociation constant (Kd) worked out at 1850 nM.

As to IIVAGFSGK, the dissociation constant (Kd) worked out at 9.1 nM.

As for IMLPESDLDK, the Kd is 609 nM.

Turning to ISIYSRPKIK, the Kd is 143 nM.

On to ITTLLNETAK, for which the dissociation constant (Kd) is 10.9 nM.

Consider KAFKNNLSR, for which the Kd came out at 301 nM.

For the sequence KFLELKRGIY, the dissociation constant (Kd) is 1240 nM.

With KLCKNHAEK, the dissociation constant (Kd) was determined as 13 nM.

With KLFKKTDFK, the Kd worked out at 8.46 nM.

For the sequence KMSTDNAVY, the dissociation constant (Kd) was found to be 43.4 nM.

For KSLLLLNTR, the equilibrium dissociation constant (Kd) came to 689 nM.

Consider LFDFVNEKY, for which the equilibrium dissociation constant (Kd) is ≥ 78000 nM.

As for LFKNVRLLK, the equilibrium dissociation constant (Kd) amounted to 233 nM.

Regarding LIPVSEVLLK, the Kd worked out at 5230 nM.

Regarding LIVTFRERY, the dissociation constant (Kd) worked out at 4680 nM.

As to LLKYAGLTIK, the Kd was 10.7 nM.

In the case of LMTLDDLAIK, the equilibrium dissociation constant (Kd) is 1670 nM.

MLPESDLDK: the dissociation constant (Kd) came to 5640 nM.

Take NAVYQCRKLR: the equilibrium dissociation constant (Kd) was 7270 nM.

For NFSIIELPY, the Kd was found to be 716 nM.

On to NIERQDYRR, for which the Kd is ≥ 66800 nM.

Turning to NIRLTDTEYR, the dissociation constant Kd was ≥ 70100 nM.

In the case of NQNLIPSTVK, the Kd was found to be 14100 nM.

As to NSSIISLFY, the equilibrium dissociation constant (Kd) stood at 56.7 nM.

Take NTILLSDKGK: the dissociation constant (Kd) stood at 96.6 nM.

Take NTVVRDFENY: the Kd is ≥ 39700 nM.

On to PLHKYCVNLY, for which the Kd was ≥ 70100 nM.

Take PMPYMISTY: the dissociation constant (Kd) was ≥ 45300 nM.

PSLEYGANY: the Kd came out at 17100 nM.

For PVDTEFINK, the Kd turned out to be 19900 nM.

QALNSVANR: the Kd was ≥ 20200 nM.

QSYRQYRNY: the dissociation constant (Kd) is 2560 nM.

In the case of RQQLEDIFMR, the equilibrium dissociation constant (Kd) turned out to be 4830 nM.

SIKIKQDVR: the Kd was 10800 nM.

Turning to SILDRIDTR, the Kd was ≥ 78000 nM.

A further experiment deals with HLA-A*11:01. The description is as above. The settings on record: source organism: Lymphocytic choriomeningitis virus (strain WE).
Turning to SAYLISIFLH, the Kd worked out at 5450 nM.

Staying with this experiment, now noted: source organism: Mammarenavirus brazilense.
For the sequence SCMVNHSTYY, the Kd worked out at 16700 nM.

Still in this experiment, the particulars now being: source organism: Mammarenavirus whitewaterense.
For KCFANNQDER, the Kd was ≥ 60300 nM.

As to KWMLISSELK, the Kd came out at 248 nM.

Still in this experiment, the particulars now being: source organism: SARS coronavirus Tor2.
For LQFTSLEIPR, the Kd came out at 850 nM.

As for LSAGVEFLK, the Kd was 0.171 nM.

With MSAPPAEYK, the equilibrium dissociation constant (Kd) was 0.948 nM.

In the case of PVVAAIITR, the Kd turned out to be 1790 nM.

For the sequence QSQMLLIVLK, the Kd worked out at 10.8 nM.

Take RQLFKPLTKK: the Kd is 8.16 nM.

The experiment is the same for the next values; noted with them: source organism: Vaccinia virus WR.
With HSNLTETFR, the dissociation constant (Kd) stood at 40.6 nM.

For IIKHIYEQY, the Kd was 4140 nM.

IIVAGFSGK: the dissociation constant Kd was determined as 25.4 nM.

In the case of IMLPESDLDK, the Kd turned out to be 393 nM.

Consider ISIYSRPKIK, for which the equilibrium dissociation constant (Kd) is 1670 nM.

As for ITTLLNETAK, the dissociation constant (Kd) was found to be 12.4 nM.

As to KAFKNNLSR, the dissociation constant Kd was determined as 152 nM.

Regarding KFLELKRGIY, the Kd was ≥ 69800 nM.

As for KLCKNHAEK, the Kd came to 19.9 nM.

Turning to KLFKKTDFK, the Kd turned out to be 8.86 nM.

Consider KMSTDNAVY, for which the dissociation constant Kd was determined as 182 nM.

Take KSLLLLNTR: the dissociation constant (Kd) was 114 nM.

On to LFDFVNEKY, for which the Kd was ≥ 48700 nM.

In the case of LFKNVRLLK, the Kd was determined as 885 nM.

For the sequence LIPVSEVLLK, the Kd is 609 nM.

Take LIVTFRERY: the Kd came to 187 nM.

Regarding LLKYAGLTIK, the dissociation constant (Kd) was determined as 162 nM.

For LMTLDDLAIK, the Kd is 478 nM.

Turning to MLPESDLDK, the Kd came out at 2080 nM.

With NAVYQCRKLR, the dissociation constant Kd amounted to 17700 nM.

Take NFSIIELPY: the Kd was 1070 nM.

As for NIERQDYRR, the Kd amounted to 12000 nM.

With NIRLTDTEYR, the Kd amounted to 17500 nM.

As to NQNLIPSTVK, the Kd worked out at 360 nM.

Regarding NSSIISLFY, the Kd worked out at 44.6 nM.

For NTILLSDKGK, the Kd was 190 nM.

On to NTVVRDFENY, for which the Kd was determined as 520 nM.

Consider PLHKYCVNLY, for which the Kd was ≥ 25600 nM.

Take PMPYMISTY: the Kd was ≥ 42100 nM.

Take PSLEYGANY: the Kd was ≥ 21700 nM.

On to PVDTEFINK, for which the Kd was 89.5 nM.

Turning to QALNSVANR, the Kd was 845 nM.

In the case of QSYRQYRNY, the Kd was 1600 nM.

Turning to RQQLEDIFMR, the Kd was 10200 nM.

As to SIKIKQDVR, the Kd was 5370 nM.

For the sequence SILDRIDTR, the Kd is 499 nM.
